For assay [1], the target named is Factor VIII obtained from plasma.
The target of assay [2] is Factor VIII dB695 (human) (UniProt P00451).
Assay [3] has as its target Factor VIII dB695-HCII (human).

With thrombin (enzyme), the second order rate constant of activation by thrombin (M^-1 s^-1 × 10^-6) in assay [1] came to 2.1e-06 M⁻¹ s⁻¹; in assay [2], 3e-06 M⁻¹ s⁻¹; in assay [3] it was 2.32e-05 M⁻¹ s⁻¹.

These data come from patent US6051418.
